In US10047131B2, “Peptides and combination of peptides for use in immunotherapy against ovarian cancer and other cancers” (immatics biotechnologies GmbH, priority 2015, dated 2018):

Target: HLA-A*02:01 (Homo sapiens, UniProt P04439, D140Y/D185E/D98H/E176V/E277Q/G131W/G231S/I119V/I121R/I166T/I218V/L300P/L318F/N151K/N90K/P208A/P217A/Q86G/Q94H/R138H/R169H/T345S)
Test: MHC binding assay (UV-ligand exchange, ELISA of exchange yield)
Settings: binding to HLA-A*02:01, UV-ligand exchange
How it was run: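 ELISA of β2m retained on streptavidin-captured, 100-fold diluted complexes (HRP anti-β2m, TMB, 450 nm) gives the yield. Complexes come from UV-triggered exchange of a photocleavable placeholder peptide for the candidate, which must bind to stop complex dissociation.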

Substance | Peptide exchange (MHC class I binding score, peptide exchange yield)
245 (SMIDDLLGV; listed as Homo sapiens) [compound 245] | “+++” (≥50 = +++)
246 (LLWEVVSQL; listed as Homo sapiens) [compound 246] | “+++” (≥50 = +++)
247 (VLLPNDLLEKV; listed as Homo sapiens) [compound 247] | “+++” (≥50 = +++)
248 (FLFPNQYVDV; listed as Homo sapiens) [compound 248] | “+++” (≥50 = +++)
249 (LLDGFLVNV; listed as Homo sapiens) [compound 249] | “+++” (≥50 = +++)
250 (ALSEEGLLVYL; listed as Homo sapiens) [compound 250] | “+++” (≥50 = +++)
251 (ALYTGFSILV; listed as Homo sapiens) [compound 251] | “++” (≥20% = ++)
252 (LLIGTDVSL; listed as Homo sapiens) [compound 252] | “+++” (≥50 = +++)
253 (GLDAATATV; listed as Homo sapiens) [compound 253] | “++” (≥20% = ++)
254 (TLLAFIMEL; listed as Homo sapiens) [compound 254] | “+++” (≥50 = +++)
255 (VLASYNLTV; listed as Homo sapiens) [compound 255] | “+++” (≥50 = +++)
256 (FLPPEHTIVYI; listed as Homo sapiens) [compound 256] | “+++” (≥50 = +++)
257 (SIFSAFLSV; listed as Homo sapiens) [compound 257] | “+++” (≥50 = +++)
258 (ELAERVPAI; listed as Homo sapiens) [compound 258] | “++” (≥20% = ++)
261 (YVLEFLEEI; listed as Homo sapiens) [compound 261] | “++” (≥20% = ++)
262 (LLWGDLIWL; listed as Homo sapiens) [compound 262] | “+++” (≥50 = +++)
263 (LLVSNLDFGV; listed as Homo sapiens) [compound 263] | “+++” (≥50 = +++)
264 (SLQEQLHSV; listed as Homo sapiens) [compound 264] | “+++” (≥50 = +++)
265 (LLFGGTKTV; listed as Homo sapiens) [compound 265] | “++” (≥20% = ++)

Substance | Peptide exchange (MHC class I binding score, peptide exchange yield)
266 (KITDTLIHL; listed as Homo sapiens) [compound 266] | “+++” (≥50 = +++)
267 (ALQDFLLSV; listed as Homo sapiens) [compound 267] | “+++” (≥50 = +++)
269 (RVLEVGALQAV; listed as Homo sapiens) [compound 269] | “++” (≥20% = ++)
270 (LLLDEEGTFSL; listed as Homo sapiens) [compound 270] | “++” (≥20% = ++)
271 (LVYPLELYPA; listed as Homo sapiens) [compound 271] | “+++” (≥50 = +++)
272 (ALGNTVPAV; listed as Homo sapiens) [compound 272] | “+++” (≥50 = +++)
273 (NLFQSVREV; listed as Homo sapiens) [compound 273] | “++” (≥20% = ++)
274 (SLLFSLFEA; listed as Homo sapiens) [compound 274] | “++” (≥20% = ++)
275 (YLVYILNEL; listed as Homo sapiens) [compound 275] | “++” (≥20% = ++)
276 (ALFTFSPLTV; listed as Homo sapiens) [compound 276] | “+++” (≥50 = +++)
277 (LLPPLESLATV; listed as Homo sapiens) [compound 277] | “++” (≥20% = ++)
278 (QLLDVVLTI; listed as Homo sapiens) [compound 278] | “++” (≥20% = ++)
279 (ALWGGTQPLL; listed as Homo sapiens) [compound 279] | “++” (≥20% = ++)
280 (VLPDPEVLEAV; listed as Homo sapiens) [compound 280] | “+++” (≥50 = +++)
281 (ILRESTEEL; listed as Homo sapiens) [compound 281] | “+++” (≥50 = +++)
282 (LLADVVPTT; listed as Homo sapiens) [compound 282] | “+++” (≥50 = +++)
283 (ALYIGDGYVIHLA; listed as Homo sapiens) [compound 283] | “+++” (≥50 = +++)
284 (ILLSQTTGV; listed as Homo sapiens) [compound 284] | “+++” (≥50 = +++)

Other lines, results leading:

Peptide exchange (MHC class I binding score, peptide exchange yield) | Substance
“+++” (≥50 = +++) | 285 (QLLHVGVTV; listed as Homo sapiens) [compound 285]
“+++” (≥50 = +++) | 286 (YLFPGIPEL; listed as Homo sapiens) [compound 286]
“+++” (≥50 = +++) | 287 (FLNEFFLNV; listed as Homo sapiens) [compound 287]
“+++” (≥50 = +++) | 288 (NLINEINGV; listed as Homo sapiens) [compound 288]
“++++” (≥75% = ++++) | 289 (VLLEIEDLQV; listed as Homo sapiens) [compound 289]
“+++” (≥50 = +++) | 295 (VLDRESPNV; listed as Homo sapiens) [compound 295]
“+++” (≥50 = +++) | 296 (FMEGAIIYV; listed as Homo sapiens) [compound 296]
“+++” (≥50 = +++) | 297 (VLADIELAQA; listed as Homo sapiens) [compound 297]
“+++” (≥50 = +++) | 298 (VMITKLVEV; listed as Homo sapiens) [compound 298]
“+++” (≥50 = +++) | 299 (YLLETSGNL; listed as Homo sapiens) [compound 299]
“+++” (≥50 = +++) | 300 (ALLGQTFSL; listed as Homo sapiens) [compound 300]
“+++” (≥50 = +++) | 301 (FLVEDLVDSL; listed as Homo sapiens) [compound 301]
“+++” (≥50 = +++) | 302 (ALLQEGEVYSA; listed as Homo sapiens) [compound 302]
“++++” (≥75% = ++++) | 303 (AILPQLFMV; listed as Homo sapiens) [compound 303]
“+++” (≥50 = +++) | 304 (MTLGQIYYL; listed as Homo sapiens) [compound 304]
“++++” (≥75% = ++++) | 305 (SIANFSEFYV; listed as Homo sapiens) [compound 305]
“+++” (≥50 = +++) | 306 (ALVNVQIPL; listed as Homo sapiens) [compound 306]
“+++” (≥50 = +++) | 307 (ALPVSLPQI; listed as Homo sapiens) [compound 307]
“+++” (≥50 = +++) | 308 (SQYSGQLHEV; listed as Homo sapiens) [compound 308]
“+++” (≥50 = +++) | 309 (GLFDGVPTTA; listed as Homo sapiens) [compound 309]
“++++” (≥75% = ++++) | 310 (FLVDTPLARA; listed as Homo sapiens) [compound 310]
“+++” (≥50 = +++) | 311 (RLYTGMHTV; listed as Homo sapiens) [compound 311]
“+++” (≥50 = +++) | 312 (IISDLTIAL; listed as Homo sapiens) [compound 312]
“+++” (≥50 = +++) | 313 (VLFDDELLMV; listed as Homo sapiens) [compound 313]
“+++” (≥50 = +++) | 314 (ALIAEGIALV; listed as Homo sapiens) [compound 314]
“+++” (≥50 = +++) | 315 (YLQDVVEQA; listed as Homo sapiens) [compound 315]
“+++” (≥50 = +++) | 316 (ILLERLWYV; listed as Homo sapiens) [compound 316]
“+++” (≥50 = +++) | 317 (SLAALVVHV; listed as Homo sapiens) [compound 317]
“++” (≥20% = ++) | 318 (GLINTGVLSV; listed as Homo sapiens) [compound 318]
“++” (≥20% = ++) | 319 (SLEPQIQPV; listed as Homo sapiens) [compound 319]
